Experimental data taken from US20120129766A1 (IRM, published 2012).

B1: hFGF21(33-209)-WT-R154C (ligand)
chain: DSSPLLQFGGQVRQRYLYTDDAQQTEAHLEIREDGTVGGAADQSPESLLQLKALKPGVIQILGVKTSRFLCQRPDGALYGSLHFDPEACSFRELLLEDGYNVYQSEAHGLPLHLPGNKSPHCDPAPRGPARFLPLPGLPPALPEPPGILAPQPPDVGSSDPLSMVGPSQGRSPSYAS
B2: hFGF21(33-209)-WT-R154C-40 kDa bPEG-MA (ligand)
chain: DSSPLLQFGGQVRQRYLYTDDAQQTEAHLEIREDGTVGGAADQSPESLLQLKALKPGVIQILGVKTSRFLCQRPDGALYGSLHFDPEACSFRELLLEDGYNVYQSEAHGLPLHLPGNKSPHCDPAPRGPARFLPLPGLPPALPEPPGILAPQPPDVGSSDPLSMVGPSQGRSPSYAS
modifications: 40 kDa branched maleimido-PEG on Cys 154 (numbered on SEQ ID NO:1)
B3: hFGF21(33-209)-WT-N-40 kDa bPEG-AL (ligand)
chain: DSSPLLQFGGQVRQRYLYTDDAQQTEAHLEIREDGTVGGAADQSPESLLQLKALKPGVIQILGVKTSRFLCQRPDGALYGSLHFDPEACSFRELLLEDGYNVYQSEAHGLPLHLPGNKSPHRDPAPRGPARFLPLPGLPPALPEPPGILAPQPPDVGSSDPLSMVGPSQGRSPSYAS
modifications: 40 kDa branched PEG (aldehyde reagent) on the N-terminal amine
B4: hFGF21(33-209)-WT-AM (ligand)
chain: DSSPLLQFGGQVRQRYLYTDDAQQTEAHLEIREDGTVGGAADQSPESLLQLKALKPGVIQILGVKTSRFLCQRPDGALYGSLHFDPEACSFRELLLEDGYNVYQSEAHGLPLHLPGNKSPHRDPAPRGPARFLPLPGLPPAPPEPPGILAPQPPDVGSSDPLSMVGPSQGRSPSYAS

target: T1, human β-klotho (human, UniProt Q86Z14 1-1044); test: cell-based or functional assay
T1 sequence (looked up): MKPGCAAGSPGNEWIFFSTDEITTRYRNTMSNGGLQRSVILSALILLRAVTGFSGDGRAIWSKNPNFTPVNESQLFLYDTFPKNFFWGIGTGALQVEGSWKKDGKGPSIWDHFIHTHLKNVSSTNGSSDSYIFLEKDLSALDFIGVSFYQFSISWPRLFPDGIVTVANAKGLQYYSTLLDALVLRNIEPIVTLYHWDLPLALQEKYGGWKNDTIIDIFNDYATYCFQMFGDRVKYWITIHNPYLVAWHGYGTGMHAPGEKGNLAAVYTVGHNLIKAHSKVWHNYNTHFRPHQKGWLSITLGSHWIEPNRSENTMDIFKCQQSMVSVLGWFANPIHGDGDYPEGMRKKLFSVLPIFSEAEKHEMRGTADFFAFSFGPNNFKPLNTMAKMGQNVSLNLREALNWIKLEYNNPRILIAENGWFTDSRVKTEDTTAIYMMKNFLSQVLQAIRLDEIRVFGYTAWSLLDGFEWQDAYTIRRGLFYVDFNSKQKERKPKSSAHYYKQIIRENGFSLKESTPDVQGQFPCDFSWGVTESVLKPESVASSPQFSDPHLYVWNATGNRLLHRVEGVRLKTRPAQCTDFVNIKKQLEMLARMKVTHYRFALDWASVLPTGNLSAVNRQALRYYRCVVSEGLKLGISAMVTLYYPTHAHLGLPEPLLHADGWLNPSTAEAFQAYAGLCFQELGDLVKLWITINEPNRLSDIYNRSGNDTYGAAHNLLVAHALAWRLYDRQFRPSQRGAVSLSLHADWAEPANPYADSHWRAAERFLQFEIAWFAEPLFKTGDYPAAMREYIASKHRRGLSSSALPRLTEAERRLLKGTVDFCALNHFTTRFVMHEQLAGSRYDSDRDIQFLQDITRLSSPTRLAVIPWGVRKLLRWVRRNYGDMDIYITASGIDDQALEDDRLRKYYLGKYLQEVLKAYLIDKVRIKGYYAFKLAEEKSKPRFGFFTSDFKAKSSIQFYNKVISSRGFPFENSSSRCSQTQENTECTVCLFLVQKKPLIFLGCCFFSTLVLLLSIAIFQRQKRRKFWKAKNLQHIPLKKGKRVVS

**Q.** Which results are given for B1?
**A.** EC50 (nM), pERK In Cell Western: 4.2 nM; Fold-WT (EC50 of variant / EC50 of FGF21-WT): 1.3 fold

**Q.** Which “EC50 (nM), pERK In Cell Western” value does the source give for B2 here?
**A.** 9 nM

**Q.** And the “Fold-WT (EC50 of variant / EC50 of FGF21-WT)” value?
**A.** 2.9 fold

**Q.** How did the “EC50 (nM), pERK In Cell Western” value turn out when B3 was run?
**A.** 20 nM

**Q.** What about the “Fold-WT (EC50 of variant / EC50 of FGF21-WT)” value of the same binder?
**A.** 6.3 fold

**Q.** For B4, which “EC50 (nM), pERK In Cell Western” value is on record?
**A.** 5.7 nM

**Q.** And the “Fold-WT (EC50 of variant / EC50 of FGF21-WT)” value?
**A.** 1.5 fold
